Sequences and labels used below:
B1: CASTOR1(S111A/D304A), apo-locked mutant (natural protein)
chain: MELHILEHRVRVLSVARPGLWLYTHPLIKLLFLPRRSRCKFFSLTETPEDYTLMVDEEGFKELPPSEFLQVAEATWLVLNVSSHSGAAVQAAGVTKIARSVIAPLAEHHVAVLMLSTYQTDFILVREQDLSVVIHTLAQEFDIYREVGGEPVPVTRDDSSNGFPRTQHGPSPTVHPIQSPQNRFCVLTLDPETLPAIATTLIDVLFYSHSTPKEAASSSPEPSSITFFAFSLIEGYISIVMDAETQKKFPSDLLLTSSSGELWRMVRIGGQPLGFDECGIVAQIAGPLAAADISAYYISTFNFAHALVPEDGIGSVIEVLQRRQEGLAS
notes: CASTOR1, arginine sensor; codon-optimized DNA in pET-28a+; Homodimer in the structure; also called CASTOR1^apo; 6×His–CASTOR1^apo; source: E. coli BL21(DE3), purified (Ni-NTA, Superdex 200 gel filtration)
B2: SESN2(E451Q/R390A/W444E), apo-locked mutant (natural protein, UniProt P58004 1-480, looked up)
chain: MIVADSECRAELKDYLRFAPGGVGDSGPGEEQRESRARRGPRGPSAFIPVEEVLREGAESLEQHLGLEALMSSGRVDNLAVVMGLHPDYFTSFWRLHYLLLHTDGPLASSWRHYIAIMAAARHQCSYLVGSHMAEFLQTGGDPEWLLGLHRAPEKLRKLSEINKLLAHRPWLITKEHIQALLKTGEHTWSLAELIQALVLLTHCHSLSSFVFGCGILPEGDADGSPAPQAPTPPSEQSSPPSRDPLNNSGGFESARDVEALMERMQQLQESLLRDEGTSQEEMESRFELEKSESLLVTPSADILEPSPHPDMLCFVEDPTFGYEDFTRRGAQAPPTFRAQDYTWEDHGYSLIQRLYPEGGQLLDEKFQAAYSLTYNTIAMHSGVDTSVLARAIWNYIHCVFGIRYDDYDYGEVNQLLERNLKVYIKTVACYPEKTTRRMYNLFERHFRHSQKVHVNLLLLEARMQAALLYALRAITRYMT
notes: sestrin2 (SESN2), leucine sensor; codon-optimized DNA in pET-28a+; also called SESN2^apo; 6×His–SESN2^apo; source: E. coli BL21(DE3), purified (Ni-NTA, SP cation-exchange flowthrough, Superdex 200 gel filtration)
B3: MIOS (subunit of the recombinant GATOR2 complex) (natural protein, human)
chain: MSGTKPDILWAPHHVDRFVVCDSELSLYHVESTVNSELKAGSLRLSEDSAATLLSINSDTPYMKCVAWYLNYDPECLLAVGQANGRVVLTSLGQDHNSKFKDLIGKEFVPKHARQCNTLAWNPLDSNWLAAGLDKHRADFSVLIWDICSKYTPDIVPMEKVKLSAGETETTLLVTKPLYELGQNDACLSLCWLPRDQKLLLAGMHRNLAIFDLRNTSQKMFVNTKAVQGVTVDPYFHDRVASFYEGQVAIWDLRKFEKPVLTLTEQPKPLTKVAWCPTRTGLLATLTRDSNIIRLYDMQHTPTPIGDETEPTIIERSVQPCDNYIASFAWHPTSQNRMIVVTPNRTMSDFTVFERISLAWSPITSLMWACGRHLYECTEEENDNSLEKDIATKMRLRALSRYGLDTEQVWRNHILAGNEDPQLKSLWYTLHFMKQYTEDMDQKSPGNKGSLVYAGIKSIVKSSLGMVESSRHNWSGLDKQSDIQNLNEERILALQLCGWIKKGTDVDVGPFLNSLVQEGEWERAAAVALFNLDIRRAIQILNEGASSEKGDLNLNVVAMALSGYTDEKNSLWREMCSTLRLQLNNPYLCVMFAFLTSETGSYDGVLYENKVAVRDRVAFACKFLSDTQLNRYIEKLTNEMKEAGNLEGILLTGLTKDGVDLMESYVDRTGDVQTASYCMLQGSPLDVLKDERVQYWIENYRNLLDAWRFWHKRAEFDIHRSKLDPSSKPLAQVFVSCNFCGKSISYSCSAVPHQGRGFSQYGVSGSPTKSKVTSCPGCRKPLPRCALCLINMGTPVSSCPGGTKSDEKVDLSKDKKLAQFNNWFTWCHNCRHGGHAGHMLSWFRDHAECPVSACTCKCMQLDTTGNLVPAETVQP
notes: MIOS, subunit of human GATOR2; codon-optimized DNA in pCAG; The MIOS chain of m1, for the pairs of subunits that touch in the structure

Data set [1] concerns the molecule itself. The experiment in a line: cryo-EM structure; purified GATOR2 at 0.45 mg/ml with a threefold molar excess of CASTOR1^apo, 45 min on ice, no arginine; Titan Krios.
Data set [2] addresses B3. The description is as above. The following applies: both partners purified.
Data set [3] deals with T1, WDR24 (subunit of the recombinant GATOR2 complex) (human, UniProt Q96S15 1-790).
T1 construct: WDR24, subunit of human GATOR2; codon-optimized DNA in pCAG; The WDR24 chain of m1
T1 sequence: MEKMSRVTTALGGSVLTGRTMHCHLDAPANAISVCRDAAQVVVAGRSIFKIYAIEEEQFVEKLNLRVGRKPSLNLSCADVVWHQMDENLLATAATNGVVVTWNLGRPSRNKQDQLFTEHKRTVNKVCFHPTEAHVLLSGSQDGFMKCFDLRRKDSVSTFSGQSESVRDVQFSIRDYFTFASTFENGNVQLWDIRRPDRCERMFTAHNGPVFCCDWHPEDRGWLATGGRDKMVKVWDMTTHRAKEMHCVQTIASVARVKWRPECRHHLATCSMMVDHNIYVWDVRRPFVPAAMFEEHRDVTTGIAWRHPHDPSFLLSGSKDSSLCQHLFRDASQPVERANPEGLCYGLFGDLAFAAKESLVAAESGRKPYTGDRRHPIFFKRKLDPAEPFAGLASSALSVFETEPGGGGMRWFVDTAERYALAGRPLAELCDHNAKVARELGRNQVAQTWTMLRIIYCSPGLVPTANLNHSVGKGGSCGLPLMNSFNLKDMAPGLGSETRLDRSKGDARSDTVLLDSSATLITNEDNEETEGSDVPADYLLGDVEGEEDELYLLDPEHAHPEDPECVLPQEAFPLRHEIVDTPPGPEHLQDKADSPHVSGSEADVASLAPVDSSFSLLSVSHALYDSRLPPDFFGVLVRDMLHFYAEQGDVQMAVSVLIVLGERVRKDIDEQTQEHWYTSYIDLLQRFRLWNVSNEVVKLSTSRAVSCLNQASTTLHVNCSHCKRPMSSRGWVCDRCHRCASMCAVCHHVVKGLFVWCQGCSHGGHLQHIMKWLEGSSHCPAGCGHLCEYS
As to the kind of experiment: cryo-EM structure; purified GATOR2 at 0.45 mg/ml with threefold molar excess of CASTOR1^apo, twofold of SESN2^apo and threefold of GATOR1, 45 min on ice; Talos Arctica, 7.77 Å map. The following applies: both partners purified.

The target of data set [4] is T2, WDR59 (subunit of the recombinant GATOR2 complex) (human, UniProt Q6PJI9 1-974).
T2 construct: WDR59, subunit of human GATOR2; codon-optimized DNA in pCAG; The WDR59 chain of m1
T2 sequence: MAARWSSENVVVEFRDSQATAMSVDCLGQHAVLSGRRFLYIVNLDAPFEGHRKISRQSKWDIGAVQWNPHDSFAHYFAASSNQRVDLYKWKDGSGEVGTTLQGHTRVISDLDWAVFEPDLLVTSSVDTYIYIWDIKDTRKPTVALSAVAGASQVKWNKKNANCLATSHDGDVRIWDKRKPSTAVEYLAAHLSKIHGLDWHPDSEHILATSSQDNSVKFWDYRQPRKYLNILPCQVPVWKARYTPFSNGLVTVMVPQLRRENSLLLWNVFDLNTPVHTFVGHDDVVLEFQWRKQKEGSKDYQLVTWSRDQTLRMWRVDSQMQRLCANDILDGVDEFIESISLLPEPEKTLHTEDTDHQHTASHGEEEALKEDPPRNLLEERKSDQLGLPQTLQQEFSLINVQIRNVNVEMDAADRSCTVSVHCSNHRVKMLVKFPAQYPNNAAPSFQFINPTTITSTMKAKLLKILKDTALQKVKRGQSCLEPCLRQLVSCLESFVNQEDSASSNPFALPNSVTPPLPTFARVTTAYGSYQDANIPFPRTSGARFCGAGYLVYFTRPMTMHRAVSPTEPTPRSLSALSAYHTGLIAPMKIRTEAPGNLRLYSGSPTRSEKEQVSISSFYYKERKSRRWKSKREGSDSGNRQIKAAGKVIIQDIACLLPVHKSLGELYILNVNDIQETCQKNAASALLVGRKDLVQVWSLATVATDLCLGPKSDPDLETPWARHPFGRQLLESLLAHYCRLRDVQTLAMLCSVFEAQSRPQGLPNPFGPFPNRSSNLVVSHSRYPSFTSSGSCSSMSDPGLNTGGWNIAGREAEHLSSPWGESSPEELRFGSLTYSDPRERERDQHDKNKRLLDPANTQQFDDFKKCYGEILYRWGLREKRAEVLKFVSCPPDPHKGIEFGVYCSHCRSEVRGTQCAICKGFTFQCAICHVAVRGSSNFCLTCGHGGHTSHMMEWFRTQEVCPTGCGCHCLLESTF
As to the kind of experiment: cryo-EM structure; purified GATOR2 at 0.45 mg/ml with a threefold molar excess of CASTOR1^apo, 45 min on ice, no arginine; Titan Krios. The note with it: both partners purified.

For the molecule B1, the “stoichiometry N” value in data set [1] came out at 2. Moreover, in data set [2], the binding result is recorded as “binds”.
On to B2, for which the binding result in data set [3] is “binds”.
On to B3, for which the binding result in data set [1] and in data set [4] was “binds” in each case.

For orientation: stoichiometry N means the number of molecules, sites or subunits per partner or assembly.
